Data as given in the RNAGym collection of RNA variant scans (doi:10.1021/acssynbio.7b00057).

B1: Pistol ribozyme (parent)
chain: GGGUCGUUGUUCCAUAAUCGCGUGGAUAUGGCACGCAAGUUUCUACCGGGCACCGUAAAUGUCCGACUGGAGCCGUUCGGGCGGCUAUAAACAGACCUCAGGCCCGAAGCGUGGCGGCACCUGCCGCCGGUGGUAAAAAAGAUCGGAAGAGCACACGUCU

Variants of: B1
Assay: aptazyme ON/OFF ratio, guanine; higher = stronger switching; co-transcriptional cleavage with and without guanine

Variant | aptazyme ON/OFF ratio
GGGUCGACAGUCCAUAAUCGCGUGGAUAUGGCACGCAAGUUUCUACCGGGCACCGUAAAUGUCCGACUGGAGCCGUUCGGGCGGCUAUAAACAGACCUCAGGCCCGAAGCGUGGCGGCACCUGCCGCCGGUGGUAAAAAAGAUCGGAAGAGCACACGUCU [U7A U8C G9A U10G] | 1.37
GGGUCGACACCUCAUAAUCGCGUGGAUAUGGCACGCAAGUUUCUACCGGGCACCGUAAAUGUCCGACUGGAGCCGUUCGGGCGGCUAUAAACAGACCUCAGGCCCGAAGCGUGGCGGCACCUGCCGCCGGUGGUAAAAAAGAUCGGAAGAGCACACGUCU [U7A U8C G9A U10C U11C C12U] | 1.04
GGGUCGACACGCAAUAAUCGCGUGGAUAUGGCACGCAAGUUUCUACCGGGCACCGUAAAUGUCCGACUGGAGCCGUUCGGGCGGCUAUAAACAGACCUCAGGCCCGAAGCGUGGCGGCACCUGCCGCCGGUGGUAAAAAAGAUCGGAAGAGCACACGUCU [U7A U8C G9A U10C U11G C13A] | 1.33
GGGUCGACACGCUAUAAUCGCGUGGAUAUGGCACGCAAGUUUCUACCGGGCACCGUAAAUGUCCGACUGGAGCCGUUCGGGCGGCUAUAAACAGACCUCAGGCCCGAAGCGUGGCGGCACCUGCCGCCGGUGGUAAAAAAGAUCGGAAGAGCACACGUCU [U7A U8C G9A U10C U11G C13U] | 1.46
GGGUCGACACGCGAUAAUCGCGUGGAUAUGGCACGCAAGUUUCUACCGGGCACCGUAAAUGUCCGACUGGAGCCGUUCGGGCGGCUAUAAACAGACCUCAGGCCCGAAGCGUGGCGGCACCUGCCGCCGGUGGUAAAAAAGAUCGGAAGAGCACACGUCU [U7A U8C G9A U10C U11G C13G] | 1.37
GGGUCGACAGUACAUAAUCGCGUGGAUAUGGCACGCAAGUUUCUACCGGGCACCGUAAAUGUCCGACUGGAGCCGUUCGGGCGGCUAUAAACAGACCUCAGGCCCGAAGCGUGGCGGCACCUGCCGCCGGUGGUAAAAAAGAUCGGAAGAGCACACGUCU [U7A U8C G9A U10G C12A] | 1.1
GGGUCGACAGUUCAUAAUCGCGUGGAUAUGGCACGCAAGUUUCUACCGGGCACCGUAAAUGUCCGACUGGAGCCGUUCGGGCGGCUAUAAACAGACCUCAGGCCCGAAGCGUGGCGGCACCUGCCGCCGGUGGUAAAAAAGAUCGGAAGAGCACACGUCU [U7A U8C G9A U10G C12U] | 1.23
GGGUCGACAGUGCAUAAUCGCGUGGAUAUGGCACGCAAGUUUCUACCGGGCACCGUAAAUGUCCGACUGGAGCCGUUCGGGCGGCUAUAAACAGACCUCAGGCCCGAAGCGUGGCGGCACCUGCCGCCGGUGGUAAAAAAGAUCGGAAGAGCACACGUCU [U7A U8C G9A U10G C12G] | 1.15
GGGUCGACAGUUAAUAAUCGCGUGGAUAUGGCACGCAAGUUUCUACCGGGCACCGUAAAUGUCCGACUGGAGCCGUUCGGGCGGCUAUAAACAGACCUCAGGCCCGAAGCGUGGCGGCACCUGCCGCCGGUGGUAAAAAAGAUCGGAAGAGCACACGUCU [U7A U8C G9A U10G C12U C13A] | 1.23
GGGUCGACAGUUGAUAAUCGCGUGGAUAUGGCACGCAAGUUUCUACCGGGCACCGUAAAUGUCCGACUGGAGCCGUUCGGGCGGCUAUAAACAGACCUCAGGCCCGAAGCGUGGCGGCACCUGCCGCCGGUGGUAAAAAAGAUCGGAAGAGCACACGUCU [U7A U8C G9A U10G C12U C13G] | 1.18
GGGUCGACAGUUUAUAAUCGCGUGGAUAUGGCACGCAAGUUUCUACCGGGCACCGUAAAUGUCCGACUGGAGCCGUUCGGGCGGCUAUAAACAGACCUCAGGCCCGAAGCGUGGCGGCACCUGCCGCCGGUGGUAAAAAAGAUCGGAAGAGCACACGUCU [U7A U8C G9A U10G C12U C13U] | 1.39
GGGUCGACAGUGAAUAAUCGCGUGGAUAUGGCACGCAAGUUUCUACCGGGCACCGUAAAUGUCCGACUGGAGCCGUUCGGGCGGCUAUAAACAGACCUCAGGCCCGAAGCGUGGCGGCACCUGCCGCCGGUGGUAAAAAAGAUCGGAAGAGCACACGUCU [U7A U8C G9A U10G C12G C13A] | 1.27
GGGUCGACAGUGUAUAAUCGCGUGGAUAUGGCACGCAAGUUUCUACCGGGCACCGUAAAUGUCCGACUGGAGCCGUUCGGGCGGCUAUAAACAGACCUCAGGCCCGAAGCGUGGCGGCACCUGCCGCCGGUGGUAAAAAAGAUCGGAAGAGCACACGUCU [U7A U8C G9A U10G C12G C13U] | 1.31
GGGUCGACAGUGGAUAAUCGCGUGGAUAUGGCACGCAAGUUUCUACCGGGCACCGUAAAUGUCCGACUGGAGCCGUUCGGGCGGCUAUAAACAGACCUCAGGCCCGAAGCGUGGCGGCACCUGCCGCCGGUGGUAAAAAAGAUCGGAAGAGCACACGUCU [U7A U8C G9A U10G C12G C13G] | 1.2
GGGUCGACACGUCAUAAUCGCGUGGAUAUGGCACGCAAGUUUCUACCGGGCACCGUAAAUGUCCGACUGGAGCCGUUCGGGCGGCUAUAAACAGACCUCAGGCCCGAAGCGUGGCGGCACCUGCCGCCGGUGGUAAAAAAGAUCGGAAGAGCACACGUCU [U7A U8C G9A U10C U11G C12U] | 1.23
GGGUCGACACGACAUAAUCGCGUGGAUAUGGCACGCAAGUUUCUACCGGGCACCGUAAAUGUCCGACUGGAGCCGUUCGGGCGGCUAUAAACAGACCUCAGGCCCGAAGCGUGGCGGCACCUGCCGCCGGUGGUAAAAAAGAUCGGAAGAGCACACGUCU [U7A U8C G9A U10C U11G C12A] | 1.09
GGGUCGACACGGCAUAAUCGCGUGGAUAUGGCACGCAAGUUUCUACCGGGCACCGUAAAUGUCCGACUGGAGCCGUUCGGGCGGCUAUAAACAGACCUCAGGCCCGAAGCGUGGCGGCACCUGCCGCCGGUGGUAAAAAAGAUCGGAAGAGCACACGUCU [U7A U8C G9A U10C U11G C12G] | 1.27
GGGUCGACACGGUAUAAUCGCGUGGAUAUGGCACGCAAGUUUCUACCGGGCACCGUAAAUGUCCGACUGGAGCCGUUCGGGCGGCUAUAAACAGACCUCAGGCCCGAAGCGUGGCGGCACCUGCCGCCGGUGGUAAAAAAGAUCGGAAGAGCACACGUCU [U7A U8C G9A U10C U11G C12G C13U] | 1.1

Variant | aptazyme ON/OFF ratio
GGGUCGACACGGAAUAAUCGCGUGGAUAUGGCACGCAAGUUUCUACCGGGCACCGUAAAUGUCCGACUGGAGCCGUUCGGGCGGCUAUAAACAGACCUCAGGCCCGAAGCGUGGCGGCACCUGCCGCCGGUGGUAAAAAAGAUCGGAAGAGCACACGUCU [U7A U8C G9A U10C U11G C12G C13A] | 1.23
GGGUCGACACGGGAUAAUCGCGUGGAUAUGGCACGCAAGUUUCUACCGGGCACCGUAAAUGUCCGACUGGAGCCGUUCGGGCGGCUAUAAACAGACCUCAGGCCCGAAGCGUGGCGGCACCUGCCGCCGGUGGUAAAAAAGAUCGGAAGAGCACACGUCU [U7A U8C G9A U10C U11G C12G C13G] | 1.29
GGGUCGACAGUAGAUAAUCGCGUGGAUAUGGCACGCAAGUUUCUACCGGGCACCGUAAAUGUCCGACUGGAGCCGUUCGGGCGGCUAUAAACAGACCUCAGGCCCGAAGCGUGGCGGCACCUGCCGCCGGUGGUAAAAAAGAUCGGAAGAGCACACGUCU [U7A U8C G9A U10G C12A C13G] | 1.2
GGGUCGACAGUAAAUAAUCGCGUGGAUAUGGCACGCAAGUUUCUACCGGGCACCGUAAAUGUCCGACUGGAGCCGUUCGGGCGGCUAUAAACAGACCUCAGGCCCGAAGCGUGGCGGCACCUGCCGCCGGUGGUAAAAAAGAUCGGAAGAGCACACGUCU [U7A U8C G9A U10G C12A C13A] | 1.24
GGGUCGACAGUAUAUAAUCGCGUGGAUAUGGCACGCAAGUUUCUACCGGGCACCGUAAAUGUCCGACUGGAGCCGUUCGGGCGGCUAUAAACAGACCUCAGGCCCGAAGCGUGGCGGCACCUGCCGCCGGUGGUAAAAAAGAUCGGAAGAGCACACGUCU [U7A U8C G9A U10G C12A C13U] | 1.19
GGGUCGACACGUGAUAAUCGCGUGGAUAUGGCACGCAAGUUUCUACCGGGCACCGUAAAUGUCCGACUGGAGCCGUUCGGGCGGCUAUAAACAGACCUCAGGCCCGAAGCGUGGCGGCACCUGCCGCCGGUGGUAAAAAAGAUCGGAAGAGCACACGUCU [U7A U8C G9A U10C U11G C12U C13G] | 1.35
GGGUCGACACGUAAUAAUCGCGUGGAUAUGGCACGCAAGUUUCUACCGGGCACCGUAAAUGUCCGACUGGAGCCGUUCGGGCGGCUAUAAACAGACCUCAGGCCCGAAGCGUGGCGGCACCUGCCGCCGGUGGUAAAAAAGAUCGGAAGAGCACACGUCU [U7A U8C G9A U10C U11G C12U C13A] | 1.29
GGGUCGACACGUUAUAAUCGCGUGGAUAUGGCACGCAAGUUUCUACCGGGCACCGUAAAUGUCCGACUGGAGCCGUUCGGGCGGCUAUAAACAGACCUCAGGCCCGAAGCGUGGCGGCACCUGCCGCCGGUGGUAAAAAAGAUCGGAAGAGCACACGUCU [U7A U8C G9A U10C U11G C12U C13U] | 1.41
GGGUCGACACCUGAUAAUCGCGUGGAUAUGGCACGCAAGUUUCUACCGGGCACCGUAAAUGUCCGACUGGAGCCGUUCGGGCGGCUAUAAACAGACCUCAGGCCCGAAGCGUGGCGGCACCUGCCGCCGGUGGUAAAAAAGAUCGGAAGAGCACACGUCU [U7A U8C G9A U10C U11C C12U C13G] | 1.03
GGGUCGACACCUUAUAAUCGCGUGGAUAUGGCACGCAAGUUUCUACCGGGCACCGUAAAUGUCCGACUGGAGCCGUUCGGGCGGCUAUAAACAGACCUCAGGCCCGAAGCGUGGCGGCACCUGCCGCCGGUGGUAAAAAAGAUCGGAAGAGCACACGUCU [U7A U8C G9A U10C U11C C12U C13U] | 1.04
GGGUCGACACCUAAUAAUCGCGUGGAUAUGGCACGCAAGUUUCUACCGGGCACCGUAAAUGUCCGACUGGAGCCGUUCGGGCGGCUAUAAACAGACCUCAGGCCCGAAGCGUGGCGGCACCUGCCGCCGGUGGUAAAAAAGAUCGGAAGAGCACACGUCU [U7A U8C G9A U10C U11C C12U C13A] | 1.05
GGGUCGACACGAUAUAAUCGCGUGGAUAUGGCACGCAAGUUUCUACCGGGCACCGUAAAUGUCCGACUGGAGCCGUUCGGGCGGCUAUAAACAGACCUCAGGCCCGAAGCGUGGCGGCACCUGCCGCCGGUGGUAAAAAAGAUCGGAAGAGCACACGUCU [U7A U8C G9A U10C U11G C12A C13U] | 1.14
GGGUCGACACGAAAUAAUCGCGUGGAUAUGGCACGCAAGUUUCUACCGGGCACCGUAAAUGUCCGACUGGAGCCGUUCGGGCGGCUAUAAACAGACCUCAGGCCCGAAGCGUGGCGGCACCUGCCGCCGGUGGUAAAAAAGAUCGGAAGAGCACACGUCU [U7A U8C G9A U10C U11G C12A C13A] | 1.12
GGGUCGACACGAGAUAAUCGCGUGGAUAUGGCACGCAAGUUUCUACCGGGCACCGUAAAUGUCCGACUGGAGCCGUUCGGGCGGCUAUAAACAGACCUCAGGCCCGAAGCGUGGCGGCACCUGCCGCCGGUGGUAAAAAAGAUCGGAAGAGCACACGUCU [U7A U8C G9A U10C U11G C12A C13G] | 1.33
GGGUCGACACCCGAUAAUCGCGUGGAUAUGGCACGCAAGUUUCUACCGGGCACCGUAAAUGUCCGACUGGAGCCGUUCGGGCGGCUAUAAACAGACCUCAGGCCCGAAGCGUGGCGGCACCUGCCGCCGGUGGUAAAAAAGAUCGGAAGAGCACACGUCU [U7A U8C G9A U10C U11C C13G] | 1
GGGUCGACACCCAAUAAUCGCGUGGAUAUGGCACGCAAGUUUCUACCGGGCACCGUAAAUGUCCGACUGGAGCCGUUCGGGCGGCUAUAAACAGACCUCAGGCCCGAAGCGUGGCGGCACCUGCCGCCGGUGGUAAAAAAGAUCGGAAGAGCACACGUCU [U7A U8C G9A U10C U11C C13A] | 1.04
GGGUCGACACCCUAUAAUCGCGUGGAUAUGGCACGCAAGUUUCUACCGGGCACCGUAAAUGUCCGACUGGAGCCGUUCGGGCGGCUAUAAACAGACCUCAGGCCCGAAGCGUGGCGGCACCUGCCGCCGGUGGUAAAAAAGAUCGGAAGAGCACACGUCU [U7A U8C G9A U10C U11C C13U] | 1.02
GGGUCGACACGCCAUAAUCGCGUGGAUAUGGCACGCAAGUUUCUACCGGGCACCGUAAAUGUCCGACUGGAGCCGUUCGGGCGGCUAUAAACAGACCUCAGGCCCGAAGCGUGGCGGCACCUGCCGCCGGUGGUAAAAAAGAUCGGAAGAGCACACGUCU [U7A U8C G9A U10C U11G] | 1.16
